Results: EP4563528A1

Experiments:
[1] = biological target: human IgG (human); assay: depletion of 10 mg/ml IgG solution, 1 mg particles per 50 µL, single half-hour incubation
[2] = biological target: human IgG (human); assay: depletion of IgG from 50 µL human serum with 1 mg nanoparticles, 60 min with stirring at room temperature

- percent of IgG removed [1]: > 90%
- IgG elimination capacity [2]: > 90%
Substance: protein G' (protein G devoid of the albumin recognition region), covalently bound to silica mesoporous nanoparticles (from UniProt P19909 314-497)
